These results are taken from US20240327869, “SYNTHETIC GENETIC ELEMENTS FOR BIOMANUFACTURE” (JANSSEN BIOTECH, INC., published 2024).

Series [1] concerns the target T1, SR21 serine recombinase (Serine Recombinase 21) (Bacillus safensis strain CCMA-560).
T1 chain: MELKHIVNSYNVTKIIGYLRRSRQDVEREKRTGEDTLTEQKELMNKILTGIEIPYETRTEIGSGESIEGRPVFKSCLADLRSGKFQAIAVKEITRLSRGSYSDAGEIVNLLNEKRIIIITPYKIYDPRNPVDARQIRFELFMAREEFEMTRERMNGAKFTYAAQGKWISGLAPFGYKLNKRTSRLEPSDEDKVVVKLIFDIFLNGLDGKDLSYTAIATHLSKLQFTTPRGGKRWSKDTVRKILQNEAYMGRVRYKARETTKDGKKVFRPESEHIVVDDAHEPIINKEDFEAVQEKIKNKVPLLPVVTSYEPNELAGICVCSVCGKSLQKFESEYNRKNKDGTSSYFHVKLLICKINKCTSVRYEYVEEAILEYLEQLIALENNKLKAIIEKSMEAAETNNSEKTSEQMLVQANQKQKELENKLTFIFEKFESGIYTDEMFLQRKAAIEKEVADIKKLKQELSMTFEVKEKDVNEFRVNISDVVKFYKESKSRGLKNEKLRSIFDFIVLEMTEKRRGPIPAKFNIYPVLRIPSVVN
Kind of series: cell_activity; attP x attB (SEQ 9) inversion reporter P41 in HEK293, fold increase in fLUC over reporter alone, 37 C 48 h. The conditions noted are these: tags: untagged; expressed from CMV promoter plasmid P175 or Ad5-CMV-SR21. On the procedure:
(§1) To measure SR21 recombinase activity in human cells, 75,000 HEK293 cells were plated into each well of 96-well tissue culture plates in 100 μl of high-glucose DMEM+10% Fetal Bovine Serum. The recombinase reporter plasmid (P041) ±the SR21 Recombinase expression plasmid (P175)+deoxynucleotides (to normalize DNA amounts) were complexed with Fugene-HD transfection reagent in OptiMEM medium for 15 minutes at room temperature as shown in Table 1 and transfected into triplicate wells of the plated cells. Plates were incubated at 37° C. for 48 hours.
(§2) Firefly Luciferase (fLUC) and Renilla luciferase (rLUC) was assayed sequentially in transfected wells using the Dual Glo assay kit from Promega. Medium was removed from the transfected wells of the tissue culture plate and 100 μl of a 1:1 mixture of DMEM medium (without phenol red) and the Dual Glo luciferase+ fLUC substrate was added. The plate was incubated at room temperature for 10 minutes. The lysate was transferred to an opaque white 96-well plate. fLUC activity was measured using the Envision multilabel reader. Next, 50 μl per well of the Stop-and-Glo buffer+Renilla substrate was added and the plate was incubated with gentle shaking for 10 minutes. The Renilla luciferase signal was read on the same Envision reader.

Series [2] addresses T1, SR21 serine recombinase (Serine …). The experiment in a line: cell_activity; attB partner of attP (SEQ 7) in inversion reporter P41, HEK293, fold increase in fLUC over reporter alone. The conditions noted are these: tags: untagged; expressed from CMV promoter plasmid P175 or Ad5-CMV-SR21. Here is the method: as §1, §2

B1: SR21 attP (dsDNA)
DNA 1: AATTAAGTATCATGATAAACTGACAAAGCGGTATATCAAGATACTTAATA
DNA 2: TATTAAGTATCTTGATATACCGCTTTGTCAGTTTATCATGATACTTAATT
On to B1, for which the activity in series [1] is 1540 fold.

B2: SR21 attB (Fairview) (dsDNA)
DNA 1: CGTCAACATCTCCACTGACAAAGCGGTTTCTCCAACGAAT
DNA 2: ATTCGTTGGAGAAACCGCTTTGTCAGTGGAGATGTTGACG
For the molecule B2, the activity in series [2] turned out to be 1540 fold.
